Results from publication doi:10.1101/369454.
Blank lines part the entries; values can stand above or below the substance they belong to.

Columns and labels:
[1] = target: Ps18.1, cytosolic class-I small heat-shock protein from Pisum sativum, wild type (Pisum sativum) (UniProt P19243); experiment: SAXS
[2] = target: Ps18.1, cytosolic class-I small heat-shock protein from Pisum sativum, wild type (Pisum sativum) (UniProt P19243); experiment: dynamic light scattering
[3] = target: E74C V144C Ta16.9 (Ta_(CT-ACD)), reduced (wheat (Triticum aestivum)) (UniProt Q41560); experiment: dynamic light scattering
[4] = target: E74C V144C Ta16.9 (Ta_(CT-ACD)), reduced (wheat (Triticum aestivum)) (UniProt Q41560); experiment: native MS
[5] = target: K49C W96C Ta16.9 (Ta_(dimer)), reduced (wheat (Triticum aestivum)) (UniProt Q41560); experiment: dynamic light scattering
[6] = target: K49C W96C Ta16.9 (Ta_(dimer)), oxidized: disulfide bonded at the dimeric interface (wheat (Triticum aestivum)) (UniProt Q41560); experiment: cross-linking
[7] = target: K49C W96C Ta16.9 (Ta_(dimer)), oxidized: disulfide bonded at the dimeric interface (wheat (Triticum aestivum)) (UniProt Q41560); experiment: dynamic light scattering
[8] = target: K49C W96C Ta16.9 (Ta_(dimer)), oxidized: disulfide bonded at the dimeric interface (wheat (Triticum aestivum)) (UniProt Q41560); experiment: SEC
[9] = target: E81C V151C Ps18.1 (Ps_(CT-ACD)), reduced (Pisum sativum) (UniProt P19243); experiment: dynamic light scattering

Substance: E74C V144C Ta16.9 (Ta_(CT-ACD)), reduced (from UniProt Q41560 1-151) (natural protein)
stoichiometry N [3]: 12
stoichiometry N [4]: 12

Substance: E81C V151C Ps18.1 (Ps_(CT-ACD)), reduced (from UniProt P19243 1-158) (natural protein)
stoichiometry N [9]: 12

Other lines, results leading:

stoichiometry N [1]: 12
stoichiometry N [2]: 12
Substance: Ps18.1, cytosolic class-I small heat-shock protein from Pisum sativum, wild type (from UniProt P19243 1-158) (natural protein)

stoichiometry N [5]: 12
Substance: K49C W96C Ta16.9 (Ta_(dimer)), reduced (from UniProt Q41560 1-151) (natural protein)

size of the disulfide-linked covalent unit [6]: 2 chains
stoichiometry N [7]: 12
stoichiometry N [8]: 12
Substance: K49C W96C Ta16.9 (Ta_(dimer)), oxidized: disulfide bonded at the dimeric interface (from UniProt Q41560 1-151) (natural protein)
